Numbering of substitutions follows the chain as printed.

The target of one assay is T1, human RAGE, full length (human, UniProt Q15109 23-404).
T1 construct: Expressed on 293 or CHO cells, or endogenous in human lung sections; also called hRAGE; cell-surface hRAGE
As to the kind of experiment: IHC, CHO cells expressing hRAGE, 1 µg/ml. On the procedure: (§1) Immunohistochemistry for RAGE lung tissues isolated from baboon, cynomolgus monkey, rabbit or Chinese Hamster Ovary cells over-expressing human RAGE or control CHO cells were performed using standard techniques. RAGE antibodies and rat IgG2b isotype control or mouse isotype control were used at […]. […] Following detection with HRP and Alexa Fluor 594, Alexa Fluor 488 or anti-biotin conjugated with FITC, sections were also stained with 4′-6-Diamidino-2-phenylindole (DAPI).
(§2) CHO cells stable transfected with an expression vector that expresses DNA encoding hRAGE is used as a positive control.

A further assay deals with T2, cynomolgus monkey RAGE (cynomolgus monkey (Macaca fascicularis), UniProt Q15109 23-404 (human entry)).
T2 construct: On transfected 293 cells or endogenous in monkey lung sections; also called 293-cyno monkey RAGE; RAGE in monkey lung
T2 chain: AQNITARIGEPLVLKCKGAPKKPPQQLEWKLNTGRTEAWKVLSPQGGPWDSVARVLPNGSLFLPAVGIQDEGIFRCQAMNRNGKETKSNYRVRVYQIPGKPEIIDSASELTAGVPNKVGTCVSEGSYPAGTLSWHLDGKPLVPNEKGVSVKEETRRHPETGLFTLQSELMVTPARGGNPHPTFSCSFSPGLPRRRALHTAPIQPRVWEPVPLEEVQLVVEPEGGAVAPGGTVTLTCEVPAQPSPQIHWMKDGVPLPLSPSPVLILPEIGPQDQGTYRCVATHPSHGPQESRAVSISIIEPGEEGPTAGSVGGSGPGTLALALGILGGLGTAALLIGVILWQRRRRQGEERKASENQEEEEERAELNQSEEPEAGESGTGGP
As to the kind of experiment: IHC, normal monkey lung, 5 µg/ml. As for the experimental part:
as §1, §2

In the next assay the target is T3, murine RAGE, full length (mouse, UniProt Q62151 23-402).
T3 construct: Expressed on 293 cells; also called mRAGE; 293-murine RAGE
T3 chain: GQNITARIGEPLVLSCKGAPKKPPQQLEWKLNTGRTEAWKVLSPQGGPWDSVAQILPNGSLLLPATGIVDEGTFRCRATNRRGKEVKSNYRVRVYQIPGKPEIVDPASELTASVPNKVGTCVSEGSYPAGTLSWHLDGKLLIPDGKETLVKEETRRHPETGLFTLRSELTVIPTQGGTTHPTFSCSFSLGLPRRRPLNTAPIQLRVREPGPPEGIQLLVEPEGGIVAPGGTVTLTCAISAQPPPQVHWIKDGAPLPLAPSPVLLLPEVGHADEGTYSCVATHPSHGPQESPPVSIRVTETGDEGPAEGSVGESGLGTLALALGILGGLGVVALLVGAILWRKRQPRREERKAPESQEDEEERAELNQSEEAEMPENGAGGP
As to the kind of experiment: FACS, 293 cells infected with murine RAGE adenovirus. As for the experimental part:
Human 293 cells were infected with the human and murine RAGE adenovirus. Infected cells were suspended in PBS containing 1% BSA at a density of 4×10⁴ cells/ml. Cells were incubated with 100 ul of sample (diluted immune sera, hybridoma supernatants or purified antibodies) for 30 min at 4° C. After washing, cells were incubated with PE-labeled goat, anti-mouse, IgG, F(ab′)₂ (DAKO Corporation GlostrupDenmark) for 30 min at 4° C. in the dark. Cell-associated fluorescence signals were measured by a FACScan flow cytofluorometer (Becton Dickinson) using 5000 cells per treatment. Propidium iodide was used to identify dead cells, which were excluded from the analysis.
For orientation: A flow cytometer gives signals particle by particle.

For assay [1], the target named is T4, human RAGE-Fc fusion protein (human, UniProt Q15109 23-344).
T4 construct: also called hRAGE-Fc; huRAGE-Fc; not shown: Fc domain of human IgG
The experiment in a line: ELISA, coated hRAGE-Fc. As for the experimental part:
Antibodies were purified from hybridoma supernatants using standard procedures. Purified antibodies were evaluated for binding to soluble forms of RAGE with the use of ELISA. […] After washing and blocking with PBS containing 1% BSA and 0.05% Tween-20, 100 ul of sample (samples were in several forms: diluted immune serum, hybridoma supernatants, or purified antibodies, as indicated) was added and incubated for 1 hour at room temperature. The plates were washed with PBS, pH 7.2 and bound anti-RAGE antibodies were detected with the use of peroxidase-conjugated goat, anti-mouse IgG (H+L) (IgG) (Pierce, Rockford, Ill.) followed by incubation with the substrate TMB (BioFX Laboratories Owings Mills, Md. Laboratories). Absorbance values were determined at 450 nm in a spectrophotometer. The concentrations of monoclonal antibodies were determined with the use of peroxidase-labeled goat, anti-mouse IgG (Fcγ) (Pierce Rockford, Ill.) and a standard curve was generated by a purified, isotype-matched mouse IgG.

Another assay has as its target T5, baboon RAGE (baboon (Papio cyanocephalus), UniProt Q15109 23-404 (human entry)).
T5 construct: On transfected 293 cells or endogenous in baboon lung sections; also called 293-baboon RAGE; RAGE in baboon lung
T5 chain: T2 chain with G347R
The experiment in a line: IHC, septic baboon lung, 1 µg/ml. On the procedure: as §1, §2

Assay [2] concerns the target T6, murine RAGE-strep tag fusion protein (mouse, UniProt Q62151 23-343).
T6 construct: also called mRAGE-strep; mRAGE-SA
T6 chain: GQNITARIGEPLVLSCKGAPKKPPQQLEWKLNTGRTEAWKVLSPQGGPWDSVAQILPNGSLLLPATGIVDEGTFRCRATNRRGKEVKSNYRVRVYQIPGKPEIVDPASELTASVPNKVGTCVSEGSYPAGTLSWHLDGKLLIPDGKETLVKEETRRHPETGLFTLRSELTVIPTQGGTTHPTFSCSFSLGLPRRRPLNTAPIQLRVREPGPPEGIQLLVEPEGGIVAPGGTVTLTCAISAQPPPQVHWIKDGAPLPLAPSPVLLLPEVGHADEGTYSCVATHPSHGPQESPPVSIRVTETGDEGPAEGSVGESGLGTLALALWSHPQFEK
As to the kind of experiment: ELISA, mRAGE-strep. In general terms: An ELISA detects its analyte on a solid surface through an enzyme-linked reagent.

Assay [3] addresses T6, murine RAGE-strep tag fusion protein. As to the kind of experiment: BIACORE capture, SA-Mu RAGE over captured antibody, 1:1 Langmuir global fit, FC3. As for the experimental part: (§3) The assays were performed by coating anti-human Fc antibodies onto a CM5 BIA chip with 5000 RU (pH 5.0, 7 min.) in flow cells 1-4. Each antibody was captured by flowing at 2.0 μg/ml over the anti-Fc antibodies in flow cells 2-4 (flow cell 1 was used as a reference).
On the technique in general: Surface plasmon resonance follows binding to a sensor surface in real time, without labels.

The target of assay [4] is T7, soluble human streptavidin-tagged RAGE (human, UniProt Q15109 23-344).
T7 construct: also called hRAGE-SA; human RAGE-strep
As to the kind of experiment: BIACORE capture, hRAGE-SA over captured antibody, steady state affinity, FC3. On the procedure: as §3

Assay [5] has as its target T7, soluble human streptavidin-tagged RAGE. As to the kind of experiment: BIACORE capture, hRAGE-SA over captured antibody, 1:1 Langmuir global fit, FC4. On the procedure: as §3
Assay [6] deals with T6, murine RAGE-strep tag fusion protein. As to the kind of experiment: BIACORE capture, SA-Mu RAGE over captured antibody, 1:1 Langmuir global fit, FC2. On the procedure: as §3
For assay [7], the target named is T7, soluble human streptavidin-tagged RAGE. As to the kind of experiment: BIACORE capture, hRAGE-SA over captured antibody, 1:1 Langmuir global fit, FC2. On the procedure:
as §3

Assay [8] has the same target. As to the kind of experiment: BIACORE capture, hRAGE-SA over captured antibody, steady state affinity, row Average. As for the experimental part:
as §3

Assay [9] shares this target. As to the kind of experiment: BIACORE capture, hRAGE-SA over captured antibody, 1:1 Langmuir global fit, FC3. On the procedure: as §3
The target is the same in assay [10]. The experiment in a line: BIACORE capture, hRAGE-SA over captured antibody, steady state affinity, FC4. On the procedure:
as §3

Assay [11] has the same target. As to the kind of experiment: BIACORE capture, hRAGE-SA over captured antibody, 1:1 Langmuir global fit, row Average. On the procedure:
as §3

Assay [12] concerns the target T6, murine RAGE-strep tag fusion protein. As to the kind of experiment: BIACORE capture, SA-Mu RAGE over captured antibody, 1:1 Langmuir global fit, FC4. On the procedure:
as §3

Assay [13] shares this target. As to the kind of experiment: BIACORE capture, SA-Mu RAGE over captured antibody, 1:1 Langmuir global fit, row Average. On the procedure: as §3
For assay [14], the target named is T7, soluble human streptavidin-tagged RAGE. The experiment in a line: BIACORE capture, hRAGE-SA over captured antibody, steady state affinity, FC2 (cell circled on the sheet). As for the experimental part:
as §3

Assay [15] addresses T4, human RAGE-Fc fusion protein. As to the kind of experiment: competition ELISA on coated hRAGE-Fc; competitor 12.5 ng/ml biotinylated rat XT-M4; lower end of the printed range 0.3-0.4; second listing of this pair (r31, beside r26: 0.95). On the procedure: (§4) ELISA plates were coated overnight with 1 ug/ml human RAGE-Fc. […] Briefly, plates were coated overnight with 1 ug/ml human RAGE-Fc.

Assay [16] shares this target. The experiment in a line: competition ELISA on coated hRAGE-Fc; competitor 12.5 ng/ml biotinylated rat XT-M4. On the procedure: as §4
Assay [17] shares this target. As to the kind of experiment: competition ELISA on coated hRAGE-Fc; competitor 12.5 ng/ml biotinylated rat XT-M4; upper end of the printed range 0.3-0.4; second listing of this pair (r31, beside r26: 0.95). As for the experimental part: as §4

B1: XT-H1 (antibody, mouse IgG1, V domains shown)
VH: QVQLKESGPGLVAPSQSLSITCTISGFSITSYGVHWVRQPPGKGLEWLVVIWSDGRTTYNSTLKSRLSISKDNSKSQVFLKMNSLQTDDTAMYYCVRHGGYFPYAMDYWGQGTSVTVSS
VL: DIQMTQSPSSLSTSLGGKVTITCKASQDINKFIAWYQHTPGKGPRLFIYYTSTLQPGIPSRFSGNGSGRDYSFSISNLEPEDIATYYCLQYDNMYTFGGGTKLEIK
notes: also called 1hRAGEP3/6; murine anti-huRAGE monoclonal antibody XT-H1
Regarding B1, the binding result is given as “binds” with human RAGE, full length; “binds” in the assay with cynomolgus monkey RAGE; “binds” with murine RAGE, full length; “binds” in [1]; “binds” in the assay with baboon RAGE; “binds” in assay [2].

B2: XT-M4-V10 (antibody, V domains shown)
VH: EVQLVESGGGLVQPGGSLRLSCAASGFTFNNYWMTWVRQAPGKGLEWVASIDNSGDNTYYPDSVKDRFTISRDNAKNSLYLQMNSLRAEDTAVYYCARGGDITTGFDYWGQGTLVTVSS
VL: DIQMTQSPSSLSASVGDRVTITCRASQDVGIYVNWFQQKPGKAPKRLIYRATNLADGVPSRFSGSGSGTDFTLTISSLQPEDFATYYCLEFDEHPLTFGGGTKVEIK
Consider B2, for which the Kd (in general, the free concentration of one partner at which half of the binding sites on the other are occupied at equilibrium, for simple one-to-one binding) came to 2.9 nM in [3]; 24 nM in [4]; 20.3 nM in [5]; 3 nM in assay [6]; 31.8 nM in assay [7]; 25 nM in assay [8]. Moreover, the Kd in assay [9] came out at 18.2 nM; in assay [10] it was 26 nM; in assay [11] it was 23.4 nM; in assay [12] it was 3 nM; in assay [13], 3 nM; in assay [14], 25 nM. In addition, the koff (as a rule, a measure of how fast the partners let go of each other) in [3] came to 0.0076 s⁻¹; in [5] it was 0.0704 s⁻¹; in [6], 0.0078 s⁻¹; in assay [7], 0.00972 s⁻¹; in assay [9] it was 0.0569 s⁻¹; in assay [11], 0.0457 s⁻¹. Besides, the figures for the koff in assay [12] and in assay [13] were 0.0078 s⁻¹ and 0.0077 s⁻¹, respectively. Besides, the kon (in general, the rate constant with which the complex forms) in assay [3] amounted to 2.6e+06 M⁻¹ s⁻¹; in assay [5], 3.47e+06 M⁻¹ s⁻¹; in assay [6], 2.6e+06 M⁻¹ s⁻¹; in assay [7] it was 306000 M⁻¹ s⁻¹; in assay [9], 3.13e+06 M⁻¹ s⁻¹; in assay [11] it was 2.3e+06 M⁻¹ s⁻¹. In addition, the kon in [12] and in assay [13] was 2.6e+06 M⁻¹ s⁻¹ throughout.

B3: humanized XT-M4 hVH-V2.0 / hVL-V2.10 (antibody, human IgG1, V domains shown)
VH: B2 VH
VL: B2 VL
Consider B3, for which the IC50 – broadly, the concentration needed to halve the response being measured – was 0.3 to 0.4 µg/mL in assay [15], 0.95 µg/mL in assay [16] and 0.3 to 0.4 µg/mL in assay [17].

Values taken from patent US20070286858A1 (Pfizer, published 2007).
